From the supplement of paper PMC7125110
± gives the standard error. For some of these results: Fewer inactive variants are shown than the library holds.

B1: glmS ribozyme (parent)
chain: AUAAAAGCGCCAGAACUACAGAAAUGUAGUUGACGAGGAGGAGGUUUAUCGAAUUUUCGGCGGAUGCCUCCAAA

Assays:
Details in all cases: with glucosamine-6-phosphate
glucosamine-6-phosphate [1] = variants of: B1; test: kcat; higher = faster cleavage; RNA array
Summary of the method: (§1)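 Barcoded ribozyme variants on sequenced MiSeq chips were transcribed in situ by E. coli RNA polymerase and followed at 37 °C through a hybridised Cy3 probe. Glucosamine-6-phosphate at 40 μM to 10 mM in HEPES/KCl/Mg(OAc)2 buffer was flowed in, and tiles were imaged over ~14 h. Signals were normalised to baseline and to non-cleaving reference variants, and per-tile medians were fit to one- or two-exponential decays to give kobs. Weighted Michaelis–Menten fits across concentrations gave kcat and KM.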

glucosamine-6-phosphate [2] = variants of: B1; test: KM; higher = weaker cofactor use; RNA array
Summary of the method: as §1

glucosamine-6-phosphate [3] = variants of: B1; test: self-cleavage kobs at 40 uM GlcN6P; higher = faster cleavage; RNA array
Summary of the method: as §1

glucosamine-6-phosphate [4] = variants of: B1; test: self-cleavage kobs at 160 uM GlcN6P; higher = faster cleavage; RNA array
Summary of the method: as §1

glucosamine-6-phosphate [5] = variants of: B1; test: self-cleavage kobs at 640 uM GlcN6P; higher = faster cleavage; RNA array
Summary of the method: as §1

glucosamine-6-phosphate [6] = variants of: B1; test: self-cleavage kobs at 2500 uM GlcN6P; higher = faster cleavage; RNA array
Summary of the method: as §1

glucosamine-6-phosphate [7] = variants of: B1; test: self-cleavage kobs at 10000 uM GlcN6P; higher = faster cleavage; RNA array
Summary of the method: as §1

G40U G66A
kcat (glucosamine-6-phosphate [1]): 0.00396 ± 0.00044 s⁻¹ | KM (glucosamine-6-phosphate [2]): 2220 ± 390 µM | self-cleavage kobs at 40 uM GlcN6P (glucosamine-6-phosphate [3]): 8.13e-05 ± 1.2e-05 s⁻¹ | self-cleavage kobs at 160 uM GlcN6P (glucosamine-6-phosphate [4]): 0.000207 ± 5.2e-05 s⁻¹ | self-cleavage kobs at 640 uM GlcN6P (glucosamine-6-phosphate [5]): 0.000901 ± 0.00016 s⁻¹ | self-cleavage kobs at 2500 uM GlcN6P (glucosamine-6-phosphate [6]): 0.00208 ± 0.0004 s⁻¹ | self-cleavage kobs at 10000 uM GlcN6P (glucosamine-6-phosphate [7]): 0.00326 ± 0.00035 s⁻¹

G37C U57G
kcat (glucosamine-6-phosphate [1]): 1.13e-05 ± 4.5e-06 s⁻¹ | self-cleavage kobs at 160 uM GlcN6P (glucosamine-6-phosphate [4]): < 1e-05 s⁻¹ | self-cleavage kobs at 10000 uM GlcN6P (glucosamine-6-phosphate [7]): < 1e-05 s⁻¹

A36G C70A
kcat (glucosamine-6-phosphate [1]): 1.58e-05 ± 4.3e-06 s⁻¹

A53U
kcat (glucosamine-6-phosphate [1]): 0.048 ± 0.0058 s⁻¹ | KM (glucosamine-6-phosphate [2]): 2500 ± 350 µM | self-cleavage kobs at 40 uM GlcN6P (glucosamine-6-phosphate [3]): 0.000782 ± 1.4e-05 s⁻¹ | self-cleavage kobs at 160 uM GlcN6P (glucosamine-6-phosphate [4]): 0.00253 ± 0.00016 s⁻¹ | self-cleavage kobs at 640 uM GlcN6P (glucosamine-6-phosphate [5]): 0.0093 ± 0.00029 s⁻¹ | self-cleavage kobs at 2500 uM GlcN6P (glucosamine-6-phosphate [6]): 0.0221 ± 0.00097 s⁻¹ | self-cleavage kobs at 10000 uM GlcN6P (glucosamine-6-phosphate [7]): 0.042 ± 0.0018 s⁻¹

A53G
kcat (glucosamine-6-phosphate [1]): 0.0676 ± 0.0095 s⁻¹ | KM (glucosamine-6-phosphate [2]): 2010 ± 330 µM | self-cleavage kobs at 40 uM GlcN6P (glucosamine-6-phosphate [3]): 0.00137 ± 2.6e-05 s⁻¹ | self-cleavage kobs at 160 uM GlcN6P (glucosamine-6-phosphate [4]): 0.00441 ± 0.0003 s⁻¹ | self-cleavage kobs at 640 uM GlcN6P (glucosamine-6-phosphate [5]): 0.015 ± 0.00053 s⁻¹ | self-cleavage kobs at 2500 uM GlcN6P (glucosamine-6-phosphate [6]): 0.0341 ± 0.0017 s⁻¹ | self-cleavage kobs at 10000 uM GlcN6P (glucosamine-6-phosphate [7]): 0.0639 ± 0.0029 s⁻¹

G37A U55C
kcat (glucosamine-6-phosphate [1]): 0.000802 ± 5.9e-05 s⁻¹ | KM (glucosamine-6-phosphate [2]): 2180 ± 260 µM | self-cleavage kobs at 160 uM GlcN6P (glucosamine-6-phosphate [4]): 5.1e-05 ± 1.1e-05 s⁻¹ | self-cleavage kobs at 640 uM GlcN6P (glucosamine-6-phosphate [5]): 0.000189 ± 2e-05 s⁻¹ | self-cleavage kobs at 2500 uM GlcN6P (glucosamine-6-phosphate [6]): 0.000404 ± 5.6e-05 s⁻¹ | self-cleavage kobs at 10000 uM GlcN6P (glucosamine-6-phosphate [7]): 0.000676 ± 8.7e-05 s⁻¹

G41C C58U
kcat (glucosamine-6-phosphate [1]): < 1e-05 s⁻¹ | self-cleavage kobs at 40 uM GlcN6P (glucosamine-6-phosphate [3]): < 1e-05 s⁻¹ | self-cleavage kobs at 160 uM GlcN6P (glucosamine-6-phosphate [4]): < 1e-05 s⁻¹ | self-cleavage kobs at 10000 uM GlcN6P (glucosamine-6-phosphate [7]): < 1e-05 s⁻¹

A53U U55G A64C
kcat (glucosamine-6-phosphate [1]): 9.81e-05 ± 5.1e-06 s⁻¹ | KM (glucosamine-6-phosphate [2]): 3420 ± 520 µM | self-cleavage kobs at 2500 uM GlcN6P (glucosamine-6-phosphate [6]): 4.12e-05 ± 1.6e-05 s⁻¹ | self-cleavage kobs at 10000 uM GlcN6P (glucosamine-6-phosphate [7]): 7.31e-05 ± 1.4e-05 s⁻¹

A36C A52U U56G U65A U69A
kcat (glucosamine-6-phosphate [1]): 2.16e-05 ± 2.7e-06 s⁻¹

G32U C70U
kcat (glucosamine-6-phosphate [1]): 0.00165 ± 0.00025 s⁻¹ | KM (glucosamine-6-phosphate [2]): 5270 ± 1300 µM | self-cleavage kobs at 160 uM GlcN6P (glucosamine-6-phosphate [4]): 7.01e-05 ± 1.6e-05 s⁻¹ | self-cleavage kobs at 640 uM GlcN6P (glucosamine-6-phosphate [5]): 0.000182 ± 2.4e-05 s⁻¹ | self-cleavage kobs at 2500 uM GlcN6P (glucosamine-6-phosphate [6]): 0.000464 ± 6.3e-05 s⁻¹ | self-cleavage kobs at 10000 uM GlcN6P (glucosamine-6-phosphate [7]): 0.00111 ± 8.8e-05 s⁻¹

G59A U69G
kcat (glucosamine-6-phosphate [1]): 1.93e-05 ± 4.9e-06 s⁻¹

G44U U55G
kcat (glucosamine-6-phosphate [1]): 0.000311 ± 3.4e-05 s⁻¹ | KM (glucosamine-6-phosphate [2]): 1860 ± 400 µM | self-cleavage kobs at 640 uM GlcN6P (glucosamine-6-phosphate [5]): 7.46e-05 ± 1.3e-05 s⁻¹ | self-cleavage kobs at 2500 uM GlcN6P (glucosamine-6-phosphate [6]): 0.000204 ± 3.6e-05 s⁻¹ | self-cleavage kobs at 10000 uM GlcN6P (glucosamine-6-phosphate [7]): 0.00025 ± 4.1e-05 s⁻¹

G44A U45C
kcat (glucosamine-6-phosphate [1]): 0.000855 ± 6.9e-05 s⁻¹ | KM (glucosamine-6-phosphate [2]): 2540 ± 420 µM | self-cleavage kobs at 160 uM GlcN6P (glucosamine-6-phosphate [4]): 4.01e-05 ± 1.9e-05 s⁻¹ | self-cleavage kobs at 640 uM GlcN6P (glucosamine-6-phosphate [5]): 0.000171 ± 2.7e-05 s⁻¹ | self-cleavage kobs at 2500 uM GlcN6P (glucosamine-6-phosphate [6]): 0.000496 ± 0.00011 s⁻¹ | self-cleavage kobs at 10000 uM GlcN6P (glucosamine-6-phosphate [7]): 0.000674 ± 6.5e-05 s⁻¹

G13U A39U
kcat (glucosamine-6-phosphate [1]): 0.0016 ± 0.0003 s⁻¹ | KM (glucosamine-6-phosphate [2]): 4770 ± 1400 µM | self-cleavage kobs at 40 uM GlcN6P (glucosamine-6-phosphate [3]): 3.33e-05 ± 1.6e-05 s⁻¹ | self-cleavage kobs at 160 uM GlcN6P (glucosamine-6-phosphate [4]): 4.9e-05 ± 1.9e-05 s⁻¹ | self-cleavage kobs at 640 uM GlcN6P (glucosamine-6-phosphate [5]): 0.000197 ± 3.6e-05 s⁻¹ | self-cleavage kobs at 2500 uM GlcN6P (glucosamine-6-phosphate [6]): 0.000513 ± 8.1e-05 s⁻¹ | self-cleavage kobs at 10000 uM GlcN6P (glucosamine-6-phosphate [7]): 0.00112 ± 0.00016 s⁻¹

U46A U47G
kcat (glucosamine-6-phosphate [1]): 0.00143 ± 0.00056 s⁻¹ | self-cleavage kobs at 160 uM GlcN6P (glucosamine-6-phosphate [4]): 9.77e-05 ± 3.5e-05 s⁻¹ | self-cleavage kobs at 640 uM GlcN6P (glucosamine-6-phosphate [5]): 0.000647 ± 0.00013 s⁻¹ | self-cleavage kobs at 2500 uM GlcN6P (glucosamine-6-phosphate [6]): 0.00107 ± 0.00027 s⁻¹ | self-cleavage kobs at 10000 uM GlcN6P (glucosamine-6-phosphate [7]): 0.00106 ± 0.00029 s⁻¹

U57A A64U
kcat (glucosamine-6-phosphate [1]): < 1e-05 s⁻¹ | self-cleavage kobs at 40 uM GlcN6P (glucosamine-6-phosphate [3]): < 1e-05 s⁻¹ | self-cleavage kobs at 10000 uM GlcN6P (glucosamine-6-phosphate [7]): < 1e-05 s⁻¹
